Patent publication US20020155575
Where “and” joins values, the source holds several entries; their conditions need not be identical. Equal entries are not always repeated.

B1: SAVINASE (subtilisin 309 from B. lentus) (protein)
chain: AQSVPWGISRVQAPAAHNRGLTGSGVKVAVLDTGISTHPDLNIRGGASFVPGEPSTQDGNGHGTHVAGTIAALNNSIGVLGVAPSAELYAVKVLGASGSGSVSSIAQGLEWAGNNGMHVANLSLGSPSPSATLEQAVNSATSRGVLVVAASGNSGAGSISYPARYANAMAVGATDQNNNRASFSQYGAGLDIVAPGVNVQSTYPGSTYASLNGTSMATPHVAGAAALVKQKNPSWSNVQIRNHLKNTATSLGSTNLYGSGLVNAEAATR

How the values were obtained:
[1] = molecular target: T1, trypsin inhibitor type IV-0 (Ovo-inhibitor), Sigma T-1886 (UniProt P10184)
T1 sequence: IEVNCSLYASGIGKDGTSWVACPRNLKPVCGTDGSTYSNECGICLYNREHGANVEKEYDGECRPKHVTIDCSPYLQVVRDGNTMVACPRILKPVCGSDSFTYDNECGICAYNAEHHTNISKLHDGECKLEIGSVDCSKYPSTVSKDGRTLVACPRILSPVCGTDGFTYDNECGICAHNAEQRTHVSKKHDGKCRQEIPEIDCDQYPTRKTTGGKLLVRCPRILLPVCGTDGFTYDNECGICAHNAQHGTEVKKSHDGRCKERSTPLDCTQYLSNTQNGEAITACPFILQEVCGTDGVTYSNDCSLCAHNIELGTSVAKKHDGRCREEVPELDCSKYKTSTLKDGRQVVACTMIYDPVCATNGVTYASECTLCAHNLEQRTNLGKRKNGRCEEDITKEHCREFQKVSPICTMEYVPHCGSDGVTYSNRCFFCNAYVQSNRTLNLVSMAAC

[2] = molecular target: T2, trypsin inhibitor type IV-0 (Ovo-inhibitor), Sigma T-1886, P10184
T2 chain: T1 sequence

Molecule | Residual Activity (%) [1] | Residual Activity (%) [2] [%]
subtilisin 309 variant S99SD + S99A + N155NR | 6.5% | –
subtilisin 309 variant S99SD + S99A + N155NA | 7.4% | –
subtilisin 309 variant S99D + S101R + S103A + V104I + G160S + A194P + V199M + V205I + *216aD | 24.0% | –
subtilisin 309 variant S99SD + S99A + S216SDP | 35.0% | –
subtilisin 309 variant S99D + S101R + S103A + V104I + G160S + A194P + V199M + V205I + *216aE | 25.4% | –
subtilisin 309 variant L217LP + S99SD + S99A | 97.0% | –
subtilisin 309 variant S99SD + S99A + N155ND | 10.7% and 7.1% | –
subtilisin 309 variant L42LN | 69.2% | –
B1 | – | <5
